{"source": "the Immune Epitope Database (IEDB)", "assay_in_all_cases": "IEDB peptide-MHC binding, purified MHC/competitive/fluorescence; filed as Kd, often an IC50 or EC50 that approximates it; ≥ and ≤ were set here for values at or beyond the usual limits of such assays", "details_in_all_cases": "source organism: Shigella flexneri 5 str. 8401", "key": {"HLA-B*18:01": {"target": "HLA-B*18:01"}, "HLA-B*15:17": {"target": "HLA-B*15:17"}, "HLA-B*53:01": {"target": "HLA-B*53:01"}, "HLA-B*58:01": {"target": "HLA-B*58:01"}, "HLA-A*68:02": {"target": "HLA-A*68:02"}, "HLA-A*30:01": {"target": "HLA-A*30:01"}, "HLA-A*02:19": {"target": "HLA-A*02:19"}, "HLA-B*46:01": {"target": "HLA-B*46:01"}, "HLA-B*27:05": {"target": "HLA-B*27:05"}, "HLA-A*02:01": {"target": "HLA-A*02:01"}, "HLA-B*27:03": {"target": "HLA-B*27:03"}, "HLA-B*44:02": {"target": "HLA-B*44:02"}, "HLA-A*02:03": {"target": "HLA-A*02:03"}, "HLA-A*26:01": {"target": "HLA-A*26:01"}, "HLA-B*40:01": {"target": "HLA-B*40:01"}, "HLA-B*08:01": {"target": "HLA-B*08:01"}, "HLA-B*57:01": {"target": "HLA-B*57:01"}, "HLA-B*14:02": {"target": "HLA-B*14:02"}, "HLA-B*07:02": {"target": "HLA-B*07:02"}, "HLA-A*11:01": {"target": "HLA-A*11:01"}, "HLA-A*66:01": {"target": "HLA-A*66:01"}, "HLA-A*29:02": {"target": "HLA-A*29:02"}, "HLA-A*30:02": {"target": "HLA-A*30:02"}, "HLA-A*03:01": {"target": "HLA-A*03:01"}, "HLA-B*15:01": {"target": "HLA-B*15:01"}, "HLA-A*01:01": {"target": "HLA-A*01:01"}, "HLA-B*51:01": {"target": "HLA-B*51:01"}}}
{"sequence": "FGALFMWLL", "values": [{"measurement": "Kd", "setting": "HLA-B*18:01", "result": "≥ 20", "unit": "µM"}, {"measurement": "Kd", "setting": "HLA-B*15:17", "result": "≥ 20", "unit": "µM"}, {"measurement": "Kd", "setting": "HLA-B*53:01", "result": "≥ 5", "unit": "µM"}, {"measurement": "Kd", "setting": "HLA-B*58:01", "result": "≥ 5", "unit": "µM"}, {"measurement": "Kd", "setting": "HLA-A*68:02", "result": 0.741, "unit": "µM"}, {"measurement": "Kd", "setting": "HLA-A*30:01", "result": "≥ 5", "unit": "µM"}, {"measurement": "Kd", "setting": "HLA-A*02:19", "result": "≥ 20", "unit": "µM"}, {"measurement": "Kd", "setting": "HLA-B*46:01", "result": "≥ 20", "unit": "µM"}, {"measurement": "Kd", "setting": "HLA-B*27:05", "result": "≥ 5", "unit": "µM"}, {"measurement": "Kd", "setting": "HLA-A*02:01", "result": "≥ 20", "unit": "µM"}, {"measurement": "Kd", "setting": "HLA-B*27:03", "result": "≥ 20", "unit": "µM"}, {"measurement": "Kd", "setting": "HLA-B*44:02", "result": "≥ 5", "unit": "µM"}, {"measurement": "Kd", "setting": "HLA-A*02:03", "result": "≥ 20", "unit": "µM"}, {"measurement": "Kd", "setting": "HLA-A*26:01", "result": "≥ 20", "unit": "µM"}, {"measurement": "Kd", "setting": "HLA-B*40:01", "result": "≥ 5", "unit": "µM"}, {"measurement": "Kd", "setting": "HLA-B*08:01", "result": "≥ 5", "unit": "µM"}, {"measurement": "Kd", "setting": "HLA-B*57:01", "result": "≥ 20", "unit": "µM"}, {"measurement": "Kd", "setting": "HLA-B*14:02", "result": "≥ 5", "unit": "µM"}, {"measurement": "Kd", "setting": "HLA-B*07:02", "result": "≥ 5", "unit": "µM"}, {"measurement": "Kd", "setting": "HLA-A*11:01", "result": "≥ 5", "unit": "µM"}, {"measurement": "Kd", "setting": "HLA-A*66:01", "result": "≥ 5", "unit": "µM"}, {"measurement": "Kd", "setting": "HLA-A*29:02", "result": 0.138, "unit": "µM"}, {"measurement": "Kd", "setting": "HLA-A*30:02", "result": "≥ 5", "unit": "µM"}, {"measurement": "Kd", "setting": "HLA-A*03:01", "result": "≥ 20", "unit": "µM"}, {"measurement": "Kd", "setting": "HLA-B*15:01", "result": "≥ 20", "unit": "µM"}, {"measurement": "Kd", "setting": "HLA-A*01:01", "result": "≥ 5", "unit": "µM"}, {"measurement": "Kd", "setting": "HLA-B*51:01", "result": "≥ 20", "unit": "µM"}]}
